Values of other authors, collected in paper PMC9028781.

Tests used:
[1] = target: YopB (nanodisc-embedded) (Yersinia pestis) (UniProt Q06114)
[2] = target: Substance P (Homo sapiens) (UniProt P20366)
Substance P (Homo sapiens), sequence (P20366 whole entry, looked up): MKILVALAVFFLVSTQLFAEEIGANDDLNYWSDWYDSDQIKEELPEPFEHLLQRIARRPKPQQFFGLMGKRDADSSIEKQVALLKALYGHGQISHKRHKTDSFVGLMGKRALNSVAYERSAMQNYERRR

LcrV-EGFP, sequence (P0C7U7 whole entry): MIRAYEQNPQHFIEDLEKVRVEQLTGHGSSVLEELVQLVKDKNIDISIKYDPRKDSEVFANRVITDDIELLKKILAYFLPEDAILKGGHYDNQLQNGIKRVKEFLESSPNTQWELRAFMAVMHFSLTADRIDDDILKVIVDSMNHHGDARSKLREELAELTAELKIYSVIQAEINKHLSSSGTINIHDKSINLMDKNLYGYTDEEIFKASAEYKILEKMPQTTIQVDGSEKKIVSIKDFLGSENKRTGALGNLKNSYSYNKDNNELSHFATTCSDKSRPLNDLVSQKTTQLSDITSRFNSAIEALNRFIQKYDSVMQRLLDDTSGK
YopB (nanodisc-embedded) (Yersinia pestis), sequence (Q06114 whole entry): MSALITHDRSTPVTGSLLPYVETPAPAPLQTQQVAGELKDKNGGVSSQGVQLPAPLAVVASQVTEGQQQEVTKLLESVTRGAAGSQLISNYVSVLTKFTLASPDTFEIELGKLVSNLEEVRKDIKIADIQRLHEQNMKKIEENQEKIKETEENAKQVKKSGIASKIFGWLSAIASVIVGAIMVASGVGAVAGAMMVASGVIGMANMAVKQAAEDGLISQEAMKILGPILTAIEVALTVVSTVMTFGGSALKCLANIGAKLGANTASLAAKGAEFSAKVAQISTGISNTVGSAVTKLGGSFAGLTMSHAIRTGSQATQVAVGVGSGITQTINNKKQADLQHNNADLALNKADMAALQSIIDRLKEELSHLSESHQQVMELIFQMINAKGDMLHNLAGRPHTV
Neurokinin-1 receptor (NK1R, nanodisc-embedded), sequence (P25103 whole entry): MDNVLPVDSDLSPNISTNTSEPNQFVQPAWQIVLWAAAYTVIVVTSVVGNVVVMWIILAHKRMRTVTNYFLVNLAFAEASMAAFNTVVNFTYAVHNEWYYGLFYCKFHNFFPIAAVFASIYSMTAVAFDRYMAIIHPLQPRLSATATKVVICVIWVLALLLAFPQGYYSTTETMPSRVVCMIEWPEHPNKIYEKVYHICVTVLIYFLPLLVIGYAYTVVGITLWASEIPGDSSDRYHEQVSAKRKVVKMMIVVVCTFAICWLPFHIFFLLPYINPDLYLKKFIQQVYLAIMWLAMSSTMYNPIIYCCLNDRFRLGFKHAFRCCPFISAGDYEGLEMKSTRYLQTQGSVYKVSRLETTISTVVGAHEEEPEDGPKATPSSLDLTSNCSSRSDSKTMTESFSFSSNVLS

Substance	Kd [1]	Kd [2]
LcrV-EGFP (from UniProt P0C7U7)	0.02 µM	
Neurokinin-1 receptor (NK1R, nanodisc-embedded) (from UniProt P25103)		0.083 µM
